Literature values as cited in patent US20200247855A1, “THERAPY AND DIAGNOSTICS” (OXFORD UNIVERSITY INNOVATION LIMITED, priority 2017, published 2020).

How the values were obtained:
chemokines = conditions: list of chemokines bound, from the literature [18,20-22]; cited from earlier work
CCL5_HUMAN = biological target: T1, CCL5_HUMAN (Homo sapiens, UniProt P13501); conditions: read-out: Kd, CCL5_HUMAN, previously described evasins; data obtained from publications [20-22,32]; cited from earlier work
T1 sequence (P13501 24-91): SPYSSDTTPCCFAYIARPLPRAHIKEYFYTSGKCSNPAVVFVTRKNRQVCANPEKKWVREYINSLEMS

CCL3_HUMAN = biological target: T2, CCL3_HUMAN (Homo sapiens, UniProt P10147); conditions: read-out: Kd, CCL3_HUMAN, previously described evasins; data obtained from publications [20-22,32]; cited from earlier work
T2 sequence (P10147 24-92): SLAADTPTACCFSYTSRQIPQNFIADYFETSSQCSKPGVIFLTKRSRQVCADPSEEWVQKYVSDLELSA

CCL7_HUMAN = CCL7_HUMAN (Homo sapiens, UniProt P80098); conditions: read-out: Kd, CCL7_HUMAN, previously described evasins; data obtained from publications [20-22,32]; cited from earlier work
CCL7_HUMAN, sequence (P80098 24-99): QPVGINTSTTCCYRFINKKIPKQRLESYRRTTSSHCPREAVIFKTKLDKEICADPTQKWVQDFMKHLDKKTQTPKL

CCL13_HUMAN = CCL13_HUMAN (Homo sapiens, UniProt Q99616); conditions: data obtained from publications [20-22,32]; cited from earlier work
CCL13_HUMAN, sequence (Q99616 17-98): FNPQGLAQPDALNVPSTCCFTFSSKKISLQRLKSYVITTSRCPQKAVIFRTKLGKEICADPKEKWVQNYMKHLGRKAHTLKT

CCL22_HUMAN = biological target: T3, CCL22_HUMAN (Homo sapiens, UniProt O00626); conditions: read-out: Kd, CCL22_HUMAN, previously described evasins; data obtained from publications [20-22,32]; cited from earlier work
T3 sequence (O00626 25-93): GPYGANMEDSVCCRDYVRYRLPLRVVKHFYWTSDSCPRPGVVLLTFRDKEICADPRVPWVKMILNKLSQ

CCL15_HUMAN = biological target: T4, CCL15_HUMAN (Homo sapiens, UniProt Q16663); conditions: read-out: Kd, CCL15_HUMAN, previously described evasins; data obtained from publications [20-22,32]; cited from earlier work
T4 sequence (Q16663 22-113): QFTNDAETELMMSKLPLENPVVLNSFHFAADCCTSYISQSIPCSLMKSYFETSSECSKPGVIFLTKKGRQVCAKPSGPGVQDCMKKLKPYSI

CCL11_HUMAN = CCL11_HUMAN (Homo sapiens, UniProt P51671); conditions: read-out: Kd, CCL11_HUMAN, previously described evasins; data obtained from publications [20-22,32]; cited from earlier work
CCL11_HUMAN, sequence (P51671 24-97): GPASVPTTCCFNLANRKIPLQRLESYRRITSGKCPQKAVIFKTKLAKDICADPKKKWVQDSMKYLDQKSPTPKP

CCL4_HUMAN = biological target: T5, CCL4_HUMAN (Homo sapiens, UniProt P13236); conditions: data obtained from publications [20-22,32]; cited from earlier work
T5 sequence (P13236 24-92): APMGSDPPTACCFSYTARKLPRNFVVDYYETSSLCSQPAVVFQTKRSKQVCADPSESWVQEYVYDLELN

CCL27_HUMAN = biological target: T6, CCL27_HUMAN (Homo sapiens, UniProt Q9Y4X3); conditions: data obtained from publications [20-22,32]; cited from earlier work
T6 sequence (Q9Y4X3 25-112): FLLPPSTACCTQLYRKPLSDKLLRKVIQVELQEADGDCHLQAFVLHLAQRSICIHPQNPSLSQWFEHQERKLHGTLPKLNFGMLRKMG

B1: P1243_AMBAM: tick CKBP, Amblyomma americanum; AAM-02 stated identical (protein, listed as Amblyomma americanum)
chain: RNHTEDNSTEYYDYEEARCACPARHLNNTNGTVLKLLGCHYFCNGTLCTAPDGYPCYNLTAQQVRTLTTYPNTSCAVGVCMKGTCVKNGTMEQCFKTP
- Previously described chemokine binding (chemokines): CCL11, CCL24, and CCL26, CCL2, and CCL7

B2: EVASIN4: previously described tick CKBP evasin 4, from Rhipicephalus sanguineus (protein, listed as Rhipicephalus sanguineus)
chain: EVPQMTSSSAPDLEEEDDYTAYAPLTCYFTNSTLGLLAPPNCSVLCNSTTTWFNETSPNNASCLLTVDFLTQDAILQENQPYNCSVGHCDNGTCAGPPRHAQCW
- Kd (CCL5_HUMAN): 0.09 nM
- Kd (CCL3_HUMAN): 0.06 nM
- Kd (CCL7_HUMAN): 0.7 nM
- Kd, CCL13_HUMAN, previously described evasins (CCL13_HUMAN): No Binding
- Kd (CCL22_HUMAN): 0.43 nM
- Kd (CCL15_HUMAN): 2.31 nM
- Kd (CCL11_HUMAN): 0.34 nM
- Kd, CCL4_HUMAN, previously described evasins (CCL4_HUMAN): No Binding
- Kd, CCL27_HUMAN, previously described evasins (CCL27_HUMAN): No Binding
